Results taken from publication PMC10139187, “Natural Isoforms of Listeria monocytogenes Virulence Factor Inlb Differ in c-Met Binding Efficiency and Differently Affect Uptake and Survival Listeria in Macrophage †” (International Journal of Molecular Sciences, 2023).

B1: gC1qR (human) (receptor)
chain: LHTDGDKAFVDFLSDEIKEERKIQKHKTLPKMSGGWELELNGTEAKLVRKVAGEKITVTFNINNSIPPTFDGEEEPSQGQKVEEQEPELTSTPNFVVEVIKNDDGKKALVLDCHYPEDEVGQEDEAESDIFSIREVSFQSTGESEWKDTNYTLNTDSLDWALYDHLMDFLADRGVDNTFADELVELSTALEHQEYITFLEDLKSFVKSQ
notes: gC1qR (receptor of the globular heads of C1q), human; the catalogue number may tell them; also called human gC1qR; source: bought: Invitrogen (#11874H08E25)
B2: idInlBCC9, internalin domain (receptor-binding domain) of InlB, isoform of clonal complex CC9 (lineage II) (domain or fragment)
chain: AKVQAETITVPTPIKQIFSDDAFAETIKDNLKKKSVTDAVTQNELNSIDQIIANNSDIKSVQGIQYLPNVTKLFLNGNKLTDIKPLANLKNLGWLFLDENKVKDLSSLKDLKKLKSLSLEHNGISDINGLVHLPQLESLYLGNNKITDITVLSRLTKLDTLSLEDNQISDIVPLAGLTKLQNLYLSKNHISDLRALAGLKNLDVLELFSQECLNKPINHQSNLVVPNTVKNTDGSLVTPEIISDDGDYEKPNVKWHLPEFTNEVSFIFYQPVTIGKAKARFHGRVTQPLKE
modifications: stained with RED-tris-NTA (on the His tag)
notes: 321 aa long; also called idInlB-His-Tag; source: E. coli BL21, purified (HisTrap FF Crude column, dialysed against PBS)

Legend:
Assay in all cases: MST; idInlB-His-Tag stained with RED-tris-NTA kept constant at 50 nM; unlabeled receptor in twofold dilutions from 0.076 nM to 2.5 uM; PBST (PBS with 0.05% Tween-20); Monolith NT.115, LED power 80%, MST power 40%; fitted to a 1:1 binding model; mean of three independent experiments
[1] = target: idInlBCC7, internalin domain (receptor-binding domain) of InlB, isoform of clonal complex CC7 (lineage II) (Listeria monocytogenes)
[2] = target: idInlBCC1, internalin domain (receptor-binding domain) of InlB, isoform of clonal complex CC1 (lineage I) (Listeria monocytogenes)
[3] = target: B2; settings: both partners purified
[4] = target: T1, chimeric protein HGFR/Fc (c-Met extracellular domain as part of a soluble chimera protein) (human, UniProt P08581 25-932); settings: both partners purified
T1 construct: Hepatocyte growth factor receptor (c-Met, HGFR), human, extracellular domain; natural c-Met is cut into an alpha and a beta chain, written here as one chain; also called human c-Met; source: bought: Sigma-Aldrich (H0536)
T1 sequence (P08581 25-932, change not shown): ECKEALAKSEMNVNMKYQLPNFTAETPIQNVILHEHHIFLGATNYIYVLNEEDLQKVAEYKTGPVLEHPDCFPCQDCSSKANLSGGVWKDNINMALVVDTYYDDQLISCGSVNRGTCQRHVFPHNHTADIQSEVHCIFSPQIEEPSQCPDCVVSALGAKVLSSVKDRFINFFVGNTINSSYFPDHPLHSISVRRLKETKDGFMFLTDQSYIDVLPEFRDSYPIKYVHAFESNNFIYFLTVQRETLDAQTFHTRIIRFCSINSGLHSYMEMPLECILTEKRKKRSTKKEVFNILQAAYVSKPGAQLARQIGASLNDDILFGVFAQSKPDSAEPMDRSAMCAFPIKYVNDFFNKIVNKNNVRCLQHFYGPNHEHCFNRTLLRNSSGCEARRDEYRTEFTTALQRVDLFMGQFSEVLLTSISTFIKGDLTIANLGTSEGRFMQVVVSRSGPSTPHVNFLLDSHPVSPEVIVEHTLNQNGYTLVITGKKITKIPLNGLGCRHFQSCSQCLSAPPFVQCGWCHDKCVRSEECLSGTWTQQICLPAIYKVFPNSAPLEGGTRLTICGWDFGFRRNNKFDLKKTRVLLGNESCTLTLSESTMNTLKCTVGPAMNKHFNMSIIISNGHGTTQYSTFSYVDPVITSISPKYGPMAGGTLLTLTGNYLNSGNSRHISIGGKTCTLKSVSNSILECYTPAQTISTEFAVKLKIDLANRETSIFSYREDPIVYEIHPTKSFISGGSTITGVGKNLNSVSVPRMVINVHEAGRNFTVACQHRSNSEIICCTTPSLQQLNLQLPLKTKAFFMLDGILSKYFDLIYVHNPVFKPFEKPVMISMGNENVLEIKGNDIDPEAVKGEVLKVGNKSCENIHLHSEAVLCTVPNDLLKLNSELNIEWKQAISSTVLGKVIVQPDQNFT

“chimeric protein HGFR/Fc (c-Met extracellular domain as part of a soluble chimera protein) (from UniProt P08581 25-932) (Fc fusion)” showed a Kd [1] of 58.7 nM and a Kd [2] of 7.4 nM.

In the case of “gC1qR (human) (from UniProt Q07021 74-282) (receptor)”, the Kd [1] is reported as 10.2 nM and the Kd [2] is reported as 7.4 nM.

With B1 the Kd [3] was 21.5 nM.

Molecule B2 has a Kd [4] of 93.6 nM.
